Measured values: the DeepSol protein solubility set

Test: soluble on expression in E. coli; label from the status in PepcDB or PDB records

Sequence	soluble on expression in E. coli
MGSDKIHHHHHHMEMNEVIIDENLKESIDLWTFMLPIISHRTTIRKNIHGYMPLHWHDELQFVVIIQGEARFQVNEEAIIVQEGDGLFINSGCLHMVEDGNGSNCVYICLNVPAQSIISRELYTAYVAPYVQATNLPYVLIPSSEMWGQNIIEATLNIHQCLEEQPPYYEMDITTKLTVIWKSLITNGFPLEYDQSAMIKNQRMKAMLQWIHLHYGENIRLDDIAKAGQLSRSECCRYFKRTLKMTPLQYVTDYRIQKSVTLLQQPESNVTDVAYQVGFNSTSYFIDQFRKAMNMTPLRYKKSKLERLID	not soluble
MGSDKIHHHHHHMENTSYIALSRQTALWRQLDVVSNNLANMNTNGYQAEQTLFSEYLMNTRDSHFRLPEKLAYTQDAGTYRDLTAGPLEHTGNPLDLAINGEGYFEVEDGAGPAYTRGGRFTLDAEGKVVTADGRPLMTDAGTPLVIAPNEGEVTISATGTVSTENGPVGKLRLVSFEDEQKLRRIGGGLFDSGDQQANPITEPRIEQGMIEKSNVNPVVEMTRMIQVQRSYEAANKLIESENDRQLNAYAVLSGTK	not soluble
MGSDKIHHHHHHMENVPLLQVNKMSKAFSNQLVLKEVNLQVERGDIYALVGGNGAGKSTLMKILTGLYSYDDGEMYVKGTKQQFANPSEAHRKGIYLIPQEPLIFPHMTIEENICIGLTEKKKKLRVQIEQLINSLGWDIDLNELGGSLSIAQQQLVEIVRGLIREAEILILDEPTSTLTTHEIKSLFVLMKSLQEKGIGMIYITHRFPEIFEIANKVAILRDGMIVSQGDVCDYTYDMLMEGLLPKGYKQKEKIEVVQETARTKKILEVIDITSHAFKNISFTVHADEIVGVAGIIGSGRTELAEAIFGLKTIKSGSILLEGKSIDACSLHKRLEKGLVYVPEDRARNGIFSIASVKENIAAASLQQNNRFFINQEKESALVNSFIEQFRIVVQNMNEELVSLSGGNQQKVVLAKYLACNPKIIILDEPTRGIDAKARIEVYETIEKMKREGLAILLISSDVEEIVQLANRVYVMRNGRFVSYMEKEQLSVNEVTRLAYGGVAE	not soluble
MGSDKIHHHHHHMEPAELLKKIHQLPRLPKAVSELLEAVNNDQISIKDIAAKVSQDPLMSARVLRLANSSYFGANRKVASIDAAVVRLGMQTLRNLVIASAVVGAVPKAEGVDLGGFWGATFEVALYSQELAKHTHIPPEEAFTCGILHNIGDLFIATAAPDAAKAIDKAVMAGADKQETELKILDFDAATIGALLAQSWRFTDKLAAGIANQYQPKEAELYSDLAGLMYMAKALFSGWDEIEDDAITGWLSVQAMNAGLEMDMSDLAADLLKVKGSGLEMGQLLA	not soluble
MGSDKIHHHHHHMEQDTSMITWHHSPAHLFVPNAFYIVTASTLCHQPLFNSPQKLHILQSTLFEIMQAYNWRLQAWAVFSNHYHFIAQSPEDSSSLKPLIQRFHSQTARAINVLDGSKGRKVWFQYWDTCLTYEQSYLARLNYVHNNPVKHGASRECRAVSLLFSYMV	not soluble
MGSDKIHHHHHHMEQLQKRKIYDTTASNASTGILNGKSSNVLNWDDVRFSWAYPLYKNMLANFWTPFEINMSHDAKQFPTLTETEQEAFKKIIGLLAFLDSVQTDYSMRAAEYLTDSSLAALMSVLSFQEVVHNQSYSYVLSSLVPKATQDEIFEYWKHDDVLKERNEFIIDGYEKFVDNPTPKTFLESIVYDVILEGLNFYSGFAFFYNLARNQKMVSTSTMINYINRDEQLHVYLFTNIFKELLVEFPELNTEETKTFVKTTLMKAADLEKDWFRYIIGDKIPGINPEDMETYISFIANKRAVQLGMEKPYPEIKHNPMKWIRAYEDVNSGKSDFFEQKSRQYAKVSADNGFDEL	not soluble
MGSDKIHHHHHHMEREKVELFKEVLKKLHKGEDVESLKKQFGELLSQIPPFEIPVIEQELLKSGEIDVRDIIKMCDLHVEFFRGAVSEAGREIEKLPNGHPLRTLYEENKQILKDAEALSLLASSMFSLPKDDPRRKQFYEKLVQHVSELHRIGLTHYTREEMLIFPYIERRGITAVPTVLWSKHDETRLKIRLLLNLLKKEESDERLKEEALELSRMLSDMVFRENNILYPTLKVLLTEGEWKAIKMLEKDIGYYKIEVTEEWETPEKPLLPHRNCLRRPIPFRGLGGSRHVYHLQIQ	not soluble
MGSDKIHHHHHHMETLILTQEEVESLISMDEAMNAVEEAFRLYALGKAQMPPKVYLEFEKGDLRAMPAHLMGYAGLKWVNSHPGNPDKGLPTVMALMILNSPETGFPLAVMDATYTTSLRTGAAGGIAAKYLARKNSSVFGFIGCGTQAYFQLEALRRVFDIGEVKAYDVREKAAKKFVSYCEDRGISASVQPAEEASRCDVLVTTTPSRKPVVKAEWVEEGTHINAIGADGPGKQELDVEILKKAKIVVDDLEQAKHGGEINVAVSKGVIGVEDVHATIGEVIAGLKDGRESDEEITIFDSTGLAIQDVAVAKVVYENALSKNVGSKIKFFRI	soluble
MGSDKIHHHHHHMETREAIFGRRSIRKYLDKPIEPEVLQDILEGAVMAPSAVNNQPWYFLAIKSQEQMEKLRGIFQEVSVKTKAVLEKRFPNNPEVVSETLGFLTSLGNARVCVLVFLLKPSKDYDIIAVESTSAAIQNLCLVAYDKGIGSCWMTAPLSTGFGDVLEKTFAPGKGKFIAAVTLGYPAVSPQAPKRKAGRYEII	not soluble
MGSDKIHHHHHHMETVQYDYKQILQRIVAEIKSSRIQVARKITSATMELYWNIGKELSAQHLSKGYGAQVVEMLASDLQKEFPGTTGFSSRNLWEMKRFYERYCGESRKLQQSVAVLPWGHNLLLMSKCKNPEEIYFYATRSTELGWTRDVLLNYIKADAFSTREEQPKLHNFKETLPECLQEQAEEMLKSRYNLEFLGITKPILELELERRLVDKIKTFLLEMGKGFSFIGNQYRLVLEDKEYFVDMLFFNRCTRSLIALELKIGSFQPEYVGKMNFYLNLLDRQVKMPDENPSIGIILCADRNNVEVEVALQGSTAPIGVSEYSYLIPQKQIKELINNELSGNKE	not soluble
MGSDKIHHHHHHMEVTRTDKAVTLRWENEEVSEGTLVFVSSSPSLEANSEPVFKVSNAAKHYTFETKDIPVYFFLQAPNGDKRVVSERILPLESVFNFRDMGGYKTKHGHHVKWGKLYRSSNLVNINQADAALLQKLHIKWICDLRSSSEVQAQPTPEIQGVLNKHIPIGTAKNEKTTLPVSNDKAIYEPLMGESYRVFVQSVDGFKEIFSEILTDAKAGLPFVFHCTAGKDRTGVLAALLLTLLDVPEKTIFDDYAITNRYQDNILQEMGGIVSLFSNGNEKIDLEAFRPMAEARPEYLKIAFDEMKKQFGSVDGYLEKGIGITAEEKAIIQQQLLE	not soluble
MGSDKIHHHHHHMEWQAEQAYNHLPPLPLDSKLAELAETLPILKACIPARAALAELKQAGELLPNQGLLINLLPLLEAQGSSEIENIVTTTDKLFQYAQEDSQADPMTKEALRYRTALYQCFTQLSNRPLCVTTALEICSTIKSVQMDVRKVPGTSLTNQATGEVIYTPPAGESVIRDLLSNWEAFLHNQDDVDPLIKMAMAHYQFEAIHPFIDGNGRTGRVLNILYLIDQQLLSAPILYLSRYIVAHKQDYYRLLLNVTTQQEWQPWIIFILNAVEQTAKWTTHKIAAARELIAHTTEYVRQQLPKIYSHELVQVIFEQPYCRIQNLVESGLAKRQTASVYLKQLCDIGVLEEVQSGKEKLFVHPKFVTLMTKDSNQFSRYAL	not soluble
MGSDKIHHHHHHMFDFKELEAFVWVVRLGSFRKGAAKLYLTQPSISDRITRLEDSVGESLLDRSARPVQPTLRGREFFTYAERLLEGREEAMRLFQDEESFSGTLRLGVIETIASSWCPTFMRRLAERYPQLTIELTVDISPFLHQRLAENDLDMLFAMDGVAPGLCAIQTPLCTYEMGMFAAPEMAATLQRGGPAAFAETAFISFSKQARPYRELVAYLTALGIDTPRIHRTSTLMTIMRMSIEGVGIGVLPVATVRDAVESGSLVRLTLEEPLPPMIYDAIWRSANYPSFCASVARLAKQCATDYAQDHGKLSSPASMKGYVDT	not soluble
MGSDKIHHHHHHMFDPETLRTFIAVAETGSFSKAAERLCKTTATISYRIKLLEENTGVALFFRTTRSVTLTAAGEHLLSQARDWLSWLESMPSELQQVNDGVERQVNIVINNLLYNPQAVAQLLAWLNERYPFTQFHISRQIYMGVWDSLLYEGFSLAIGVTGTEALANTFSLDPLGSVQWRFVMAADHPLANVEEPLTEAQLRRFPAVNIEDSARTLTKRVAWRLPGQKEIIVPDMETKIAAHLAGVGIGFLPKSLCQSMIDNQQLVSRVIPTMRPPSPLSLAWRKFGSGKAVEDIVTLFTQRRPEISGFLEIFGNPRS	not soluble
MGSDKIHHHHHHMFEKRHRITLLFNANKAYDRQVVEGVGEYLQASQLEWDIFIEEDFRARIENIKEWLGDGVIADYDDPEIEKLLADVHVPIVGVGGSYHQPEQYPPVHYIATDNAALVESAFLHLKEKGVHRFAFYGLPASSGKRWAVEREYAFCQLVAKEKYRGVVYQGLETAPENWQHAQNRLADWLQTLPPQTGIIAVTDARARHVLQACELLHIPVPEKLCVIGIDNEELTRYLSRVALSSVAQGTRQMGYQAAKLLHRLLNNEALPLQRQLIPPMRVVERRSTDYRSLNDPSVIQAMHYIRNNACKGIKVEQVLDAVGISRSNLEKRFKEEVGETIHTVIHSEKLEKARSLLVSTSLSINEISQMCGYPSLQYFYSVFKKEYDVTPKEYRDRHSEVML	not soluble
MGSDKIHHHHHHMFGPGGTQIPNPLRLKRPEGELVWAHATTQERLLGLCDVGCRLKMMRPDLSVMLTWEEDMRPAKLPEGCDIPLGPLTVEQPNDIRNFLDNWSPDVCVWAGGRLRRLLMRHMREREMPALLCDIDADELPSRASRWLPDQRHRLLNGFAAILVPGTEVSERLKRAGVAPERIHPAGRLFQSSTPPSCNDDELAQMQKQFASRPLWLAAHVSLSELPAVLKAHRGALRLLHRLLLVLTVDTFEDLDAARSLLRKEGLSFADWDMGEDPEDHTQVAIGLTENLGLWYRLCPISFLGNSLIRGAQGTNPLDAAALGSAILHGPGVVAHAQAYQRLAALDAAERIHGEEELADAVFRLSSPDRAAEMALAGWQVVTEGAVMTDTLLERIQDLLDQSELSHAPA	not soluble
MGSDKIHHHHHHMFKETLRECMEGHTLAERKAEQVMDAIMKGEATASQIASLLTVLRFRGETVAEMTGFARAMRRHSIQIEHSFSQVVDTCGTGGDDVGTFNISTATALLVSALGVPVAKHGNRAVSSKSGSADVLEALQIPIQSSPEEATASLQKHNMCFMFAPLYHVAMKHAVAPRKEIGFRTIFNLLGPLTNPARAEHQLIGVYDRNFAEKMAETLRRLGTKHSLLVAGHGGLDELSITGPSTVFEVKGDAIDRYELIPEDVGLERGDLAQIQVSTVQESATLIDQVLIGKANKSAQQIVLLNAGAALYAADRVDSIKAGVALAKEGIASGHVADHVRNLRQTDQEAEQHA	not soluble
MGSDKIHHHHHHMFKLVSEFEPTGDQPQAIEKLVEGLNRGMRFQTLLGVTGSGKTFTMANVIARVNRPALVISPNKTLAAQLYQEFKTFFPENRVEFFISYYDYYQPEAYIPTKDLYIEKNADINDVIVRMRMSTLKSVRTRRDVVVVASVSCIYATGDPNDFDRMNINLAVGDRIDVLELAERLARIGYQRTEDVSLSGCFRLKGDTVEIYPTYQDEGIRIEFFGDEVDSITLIDRFNRTTLEHLDKIIIYPAVEFITTEEKLKRAVESIREELNERLSELKKQGKILEYERLKQRTLNDIELLETMGYCPGIENYSRHFDGRKPGEPPYTLLDYFDKDFIVFIDESHITVPQLRAMYNGDRSRKKNLVEYGFRLPSAYDNRPLTFEEFLKKTGQIIFVSATPGDFELSISEQVVEQIIRPTGLVDPEVEVRPTAGQVDDLVNEIVKVKERGERALVTVLTKKTAELLSEHLTELGIRSLYLHSELDAIERVEVLKKLRRGDVDVVVGVNLLREGLDLPEVSLVAIMDADVEGFLRSETTLIQIIGRTARNVNGKVIMYADRITNAMKRAIEETNRRRRIQLEYNRKHGITPRSVIKPLEIEVFEQFMVKEEPERYGDTVKNIFEMKKTLSPEEYMAVLEEEMYRAASELRYEDAAALRDELFRIREEIKKKKGL	not soluble
